Molecular target: DDX43 (Mus musculus, UniProt D3Z6P9 1-646)
Assay: EMSA; EMSA: 10 nM biotin-RNA, 50 mM Tris-HCl pH 7.5, 100 mM KCl, 2.5% glycerol, 0.05% NP-40, 4 mM EDTA, 1 mM DTT, RiboLock 2 U, 37 C 30 min; 8% native TBE PAGE at 4 C; G4 folded in 50 mM Tris-HCl pH 7.5, 150 mM KCl, 0.1 mM EDTA
Details: protein: recombinant; tags: His tag (Ni-NTA, pET28a); label: 3' biotin; single strand

Chain of DDX43 (D3Z6P9 entry or part of it): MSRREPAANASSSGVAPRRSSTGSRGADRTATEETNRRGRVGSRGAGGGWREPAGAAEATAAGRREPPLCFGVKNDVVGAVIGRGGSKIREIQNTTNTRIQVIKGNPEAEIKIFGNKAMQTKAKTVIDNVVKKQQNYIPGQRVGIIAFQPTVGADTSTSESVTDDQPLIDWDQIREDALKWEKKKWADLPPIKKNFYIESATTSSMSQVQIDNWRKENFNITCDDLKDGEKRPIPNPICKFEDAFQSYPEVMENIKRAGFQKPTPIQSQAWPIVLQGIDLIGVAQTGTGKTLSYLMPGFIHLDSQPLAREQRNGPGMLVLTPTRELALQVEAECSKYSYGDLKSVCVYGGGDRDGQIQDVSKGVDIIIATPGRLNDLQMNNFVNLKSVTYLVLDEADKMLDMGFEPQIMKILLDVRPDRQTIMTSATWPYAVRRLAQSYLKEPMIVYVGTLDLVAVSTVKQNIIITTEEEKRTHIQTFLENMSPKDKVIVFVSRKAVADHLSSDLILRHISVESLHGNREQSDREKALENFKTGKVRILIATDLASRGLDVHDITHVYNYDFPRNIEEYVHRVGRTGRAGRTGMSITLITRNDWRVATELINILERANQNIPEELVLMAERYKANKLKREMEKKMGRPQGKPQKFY

Binder: ACCGCUGCCGUCGCUCCG (ssRNA) [ssRNA]
- binding result: no binding
